Test results published in EP2717941B1 (TLA Targeted Immunotherapies AB, dated 2020).
Groups on a side chain read outwards from the residue. *: point of attachment. Biotin = O=C1N[C@H]2[C@H](CS[C@H]2CCCCC(=O)*)N1; PEG = not defined here

Assays:
Test in all cases: cell-based or functional assay
[1] = target: hCCR5 (human, UniProt P51681 1-352)
[2] = target: T1, CCR4 (human, UniProt P51679 1-360)
T1 sequence (looked up): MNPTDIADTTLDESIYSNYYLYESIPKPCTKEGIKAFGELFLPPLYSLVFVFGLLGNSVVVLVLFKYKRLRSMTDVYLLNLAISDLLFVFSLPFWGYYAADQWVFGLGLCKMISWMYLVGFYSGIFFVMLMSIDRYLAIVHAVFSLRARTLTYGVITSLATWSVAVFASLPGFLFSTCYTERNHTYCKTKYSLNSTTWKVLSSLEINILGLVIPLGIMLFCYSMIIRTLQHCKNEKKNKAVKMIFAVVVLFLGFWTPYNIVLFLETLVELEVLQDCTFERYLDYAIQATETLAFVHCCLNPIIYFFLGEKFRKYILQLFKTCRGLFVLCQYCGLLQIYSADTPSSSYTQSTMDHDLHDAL

[3] = target: T2, hCCR10 (human, UniProt P46092 1-362)
T2 sequence (looked up): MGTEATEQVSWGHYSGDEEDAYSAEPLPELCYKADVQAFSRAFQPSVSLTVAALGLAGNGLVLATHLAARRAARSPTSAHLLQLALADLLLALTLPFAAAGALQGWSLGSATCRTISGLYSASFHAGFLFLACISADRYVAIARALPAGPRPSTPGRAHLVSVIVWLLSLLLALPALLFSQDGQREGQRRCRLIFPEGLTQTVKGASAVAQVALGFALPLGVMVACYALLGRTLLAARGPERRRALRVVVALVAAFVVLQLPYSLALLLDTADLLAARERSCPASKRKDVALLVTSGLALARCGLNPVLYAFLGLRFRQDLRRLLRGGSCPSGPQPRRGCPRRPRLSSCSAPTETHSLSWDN

[4] = target: T3, chemokine receptor CCR7 (human, UniProt P32248 25-378)
T3 sequence (looked up): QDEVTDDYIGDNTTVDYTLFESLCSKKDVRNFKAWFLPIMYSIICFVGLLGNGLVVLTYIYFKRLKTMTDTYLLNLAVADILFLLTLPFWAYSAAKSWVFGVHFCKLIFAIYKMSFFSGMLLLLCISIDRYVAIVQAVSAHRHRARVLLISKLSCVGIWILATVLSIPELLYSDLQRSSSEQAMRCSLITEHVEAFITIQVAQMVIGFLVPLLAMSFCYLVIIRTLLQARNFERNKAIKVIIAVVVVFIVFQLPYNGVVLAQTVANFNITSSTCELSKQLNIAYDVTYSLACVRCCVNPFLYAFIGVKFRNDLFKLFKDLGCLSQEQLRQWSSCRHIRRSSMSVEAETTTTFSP

[5] = target: T4, hCXCR3 (human, UniProt P49682 1-368)
T4 sequence (looked up): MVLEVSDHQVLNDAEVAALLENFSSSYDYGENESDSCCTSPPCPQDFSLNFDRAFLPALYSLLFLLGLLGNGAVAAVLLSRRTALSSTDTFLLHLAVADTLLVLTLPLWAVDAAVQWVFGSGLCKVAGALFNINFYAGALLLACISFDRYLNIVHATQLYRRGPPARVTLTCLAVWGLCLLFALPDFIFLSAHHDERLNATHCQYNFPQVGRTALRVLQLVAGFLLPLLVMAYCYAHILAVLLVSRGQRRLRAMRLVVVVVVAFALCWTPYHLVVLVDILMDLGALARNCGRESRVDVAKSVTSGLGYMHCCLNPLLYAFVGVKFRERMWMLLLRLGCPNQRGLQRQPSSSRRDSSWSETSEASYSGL

Sequence of hCCR5 (P51681 whole entry): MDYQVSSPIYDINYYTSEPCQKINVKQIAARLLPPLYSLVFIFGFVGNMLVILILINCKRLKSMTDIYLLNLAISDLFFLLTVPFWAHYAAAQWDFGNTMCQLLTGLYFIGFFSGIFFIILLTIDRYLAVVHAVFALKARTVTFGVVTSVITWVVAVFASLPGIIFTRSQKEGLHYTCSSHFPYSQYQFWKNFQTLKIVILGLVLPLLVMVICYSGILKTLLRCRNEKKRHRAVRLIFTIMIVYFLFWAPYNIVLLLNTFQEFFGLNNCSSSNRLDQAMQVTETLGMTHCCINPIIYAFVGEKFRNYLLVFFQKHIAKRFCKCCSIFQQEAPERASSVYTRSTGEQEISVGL

B1: biotinRANTES (CCL5), RANTES derivatised at the ε-amino side chain functionality of Lys(67) with Biotin (ligand)
chain: SPYSSDTTPCCFAYIARPLPRAHIKEYFYTSGKCSNPAVVFVTRKNRQVCANPEKKWVREYINSLEK(Biotin)S
modifications: ends and bridges not checked
EC50, agonist activity, Aequorin assay [1]: 0.5 nM

B2: biotinTARC (CCL17), TARC derivatised at the ε-amino side chain functionality of Lys(72) with PEG-Biotin (ligand)
chain: ARGTNVGRECCLEYFKGAIPLRKLKTWYQTSEDCSRDAIVFVTVQGRAICSDPNNKRVKNAVKYLQSLERSK([PEG-Biotin])-NH2
modifications: ends and bridges not checked; also: TFA salt
EC50, agonist activity, Aequorin assay [2]: 3.1 nM

B3: biotinCTAC (CCL27), CTAC derivatised at the ε-amino side chain functionality of Lys(87) with PEG-Biotin (ligand)
chain: FLLPPSTACCTQLYRKPLSDKLLRKVIQVELQEADGDCHLQAFVLHLAQRSICIHPQNPSLSQWFEHQERKLHGTLPKLNFGMLRKK([PEG-Biotin])G
modifications: ends and bridges not checked
EC50, agonist activity, Aequorin assay [3]: 49.4 nM

B4: biotinMIP-3β (CCL19), MIP-3β derivatised at the ε-amino side chain functionality of Lys(78) with Biotin (ligand)
chain: GTNDAEDCCLSVTQKPIPGYIVRNFHYLLIKDGCRVPAVVFTTLRGRQLCAPPDQPWVERIIQRLQRTSAKMKRRSSX
modifications: additional Lys(78) = K(Biotin); assembled on Rink Amide resin (C-terminal amide)
EC50, agonist activity, Aequorin assay [4]: 11 nM

B5: biotinITAC (CXCL11), ITAC derivatised with Biotin at the ε-amino side chain functionality of an additional Lysine inserted at the C-terminus after a PEG spacer (ligand)
chain: FPMFKRGRCLCIGPGVKAVKVADIEKASIMYPSNNCDKIEVIITLKENKGQRCLNPKSKQARLIIKKVERKNFX
modifications: X (position 74) is PEG-K(Biotin): PEG spacer between the protein's C-terminus and an additional biotinylated lysine
EC50, agonist activity, Aequorin assay [5]: 15.7 nM

B6: biotinMDC (CCL22), MDC derivatised at the ε-amino side chain functionality of Lys(66) with PEG-Biotin (ligand)
chain: GPYGANMEDSVCCRDYVRYRLPLRVVKHFYWTSDSCPRPGVVLLTFRDKEICADPRVPWVKMILNK([PEG-Biotin])LSQ-NH2
modifications: ends and bridges not checked
EC50, agonist activity, Aequorin assay [2]: 4.5 nM
